Our source for the Kd and EC50 values is patent US20200140552A1 (Sanofi, published 2020).

Experiment [1] deals with T1, recombinant human CD38 (SPR antigen of Example 2) (human, UniProt P28907 43-300). The experiment in a line: SPR against recombinant protein; the cell gives two values for mid/low, the second taken as the CD3low construct.
The target of experiment [2] is T1, recombinant human CD38 (SPR antigen of …). Nature of the experiment: SPR; KD rounded to integer; the cell gives two values for mid/low, the second taken as the CD3low construct.
Experiment [3] has as its target human CD28 (SPR antigen of Example 2) (human, UniProt P10747 19-152). Described as above.
The target in experiment [4] is T2, human CD3 (SPR antigen of Example 2) (human).
T2 chain: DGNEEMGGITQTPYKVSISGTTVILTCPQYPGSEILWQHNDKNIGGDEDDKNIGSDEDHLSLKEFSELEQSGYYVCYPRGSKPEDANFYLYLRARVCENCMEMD
The experiment is described as above.

The next experiment concerns the target T3, hCD38-his (SEQ ID NO: 2) (human, UniProt P28907 45-300).
T3 construct: also called human CD38-histag (ID2); soluble extracellular domain of humanCD38
The experiment in a line: SPR (summary table; Table K value rounded).

Experiment [5] concerns the target T2, human CD3 (SPR antigen of Example 2). Nature of the experiment: SPR; KD rounded to integer per the table's title. (In general: In SPR one partner is held on a chip, and binding of the other changes the refractive index at the surface.)
Experiment [6] addresses T1, recombinant human CD38 (SPR antigen of …). Nature of the experiment: SPR.
The target in experiment [7] is T4, human CD38 expressed on the surface of recombinant murine preB::300.19 cells (human, UniProt P28907 1-300).
T4 construct: whole, on cells; also called hCD38-expressing cells; cells expressing human CD38
Nature of the experiment: flow cytometry on hCD38-expressing murine preB::300.19 cells.

Experiment [8] has as its target T1, recombinant human CD38 (SPR antigen of …). Nature of the experiment: SPR; KD rounded to integer; the cell gives two values for mid/low, the first taken as the CD3mid construct.
The target in experiment [9] is T2, human CD3 (SPR antigen of Example 2). The description is as above.
Experiment [10] deals with T1, recombinant human CD38 (SPR antigen of …). The experiment in a line: SPR against recombinant protein; the cell gives two values for mid/low, the first taken as the CD3mid construct.

B1: CD38VH1xCD28cvnxCD3low trispecific binding protein (other)
VH 1: QVQLQESGPGLVKPSQTLSLTCTVSGFSLSDYGVHWVRQPPGKGLEWLGVIWAGGGTNYNPSLKSRKTISKDTSKNQVSLKLSSVTAADTAVYYCARDKGYSYYYSMDYWGQGTTVTVS
VL 1: DIVLTQSPASLAVSPGQRATITCRASESVEYYVTSLMQWYQQKPGQPPKLLIFAASNVESGVPARFSGSGSGTDFTLTINPVEANDVANYYCQQSRKVPYTFGQGTKLEIK
VH 2: QVQLVESGGGVVQPGRSLRLSCAASGFTFTKAWMHWVRQAPGKGLEWVAQIKDKSNSYATYYADSVKGRFTISRDNSKNTLYLQMNSLRAEDTAVYYCRGVYYALSPFDYWGQGTLVTVSS
VL 2: DIVMTQTPLSLSVTPGQPASISCKSSQSLVHNNGNTYLSWYLQKPGQSPQLLIYKVSNRFSGVPDRFSGSGSGTDFTLKISRVEAEDVGVYYCGQGTQYPFTFGGGTKVEIK
VH 3: QVQLVQSGAEVVKPGASVKVSCKASGYTFTSYAMHWVKEAPGQRLEWIGYIYPGQGGTNYNQKFQGRATLTADTSASTAYMELSSLRSEDTAVYFCARTGGLRRAYFTYWGQGTLVTVSS
VL 3: DIVLTQSPATLSLSPGERATISCRASQSVSSYGQGFMHWYQQKPGQPPRLLIYGASSRATGIPARFSGSGSGTDFTLTISPLEPEDFAVYYCQQNKEDPWTFGGGTKLEIK
notes: also called CD38VH1xCD28cvnxCD3mid/low
Broadly, the Kd is the concentration at which binding is half-saturated. For the molecule B1, the Kd came out at 6 nM in experiment [1], 6 nM in experiment [2], 34 nM in experiment [3] and 59 nM in [4].

B2: antiCD38_C2-CD38-1_VH3-VL3 (antibody, human IgG1, kappa, V domains shown)
VH: QVQLVQSGAEVVKPGASVKVSCKASGYTFTSFNMHWVKEAPGQRLEWIGYIYPGNGGTNYNQKFQGRATLTADTSASTAYMELSSLRSEDTAVYFCARTGGLRRAYFTYWGQGTLVTVSS
VL: DIVLTQSPATLSLSPGERATISCRASESVDSYGNGFMHWYQQKPGQPPRLLIYLASSRATGIPARFSGSGSGTDFTLTISPLEPEDFAVYYCQQNKEDPWTFGGGTKLEIKR
In the experiment with hCD38-his (SEQ ID NO: 2), B2 registered a Kd of 0.48 nM.

B3: CD38VH1xCD28supxCD3low trispecific binding protein (other)
VH 1: QVQLVQSGAEVVKPGASVKVSCKASGYTFTSYYIHWVRQAPGQGLEWIGSIYPGNVNTNYAQKFQGRATLTVDTSISTAYMELSRLRSDDTAVYYCTRSHYGLDWNFDVWGKGTTVTVSS
VL 1: DIQMTQSPSSLSASVGDRVTITCQASQNIYVWLNWYQQKPGKAPKLLIYKASNLHTGVPSRFSGSGSGTDFTLTISSLQPEDIATYYCQQGQTYPYTFGQGTKLEIK
VH 2: QVQLVESGGGVVQPGRSLRLSCAASGFTFTKAWMHWVRQAPGKGLEWVAQIKDKSNSYATYYADSVKGRFTISRDNSKNTLYLQMNSLRAEDTAVYYCRGVYYALSPFDYWGQGTLVTVSS
VL 2: DIVMTQTPLSLSVTPGQPASISCKSSQSLVHNNGNTYLSWYLQKPGQSPQLLIYKVSNRFSGVPDRFSGSGSGTDFTLKISRVEAEDVGVYYCGQGTQYPFTFGGGTKVEIK
VH 3: QVQLVQSGAEVVKPGASVKVSCKASGYTFTSYAMHWVKEAPGQRLEWIGYIYPGQGGTNYNQKFQGRATLTADTSASTAYMELSSLRSEDTAVYFCARTGGLRRAYFTYWGQGTLVTVSS
VL 3: DIVLTQSPATLSLSPGERATISCRASQSVSSYGQGFMHWYQQKPGQPPRLLIYGASSRATGIPARFSGSGSGTDFTLTISPLEPEDFAVYYCQQNKEDPWTFGGGTKLEIK
notes: also called CD38VH1xCD28supxCD3mid/low
With B3, the Kd amounted to 6 nM in [1], 6 nM in experiment [2], 4 nM in experiment [3] and 76 nM in [4].

B4: CD38HHY1370xCD28supxCD3mid trispecific binding protein (other)
light 1: DIVMTQTPLSLSVTPGQPASISCKSSQSLVHNNANTYLSWYLQKPGQSPQSLIYKVSNRFSGVPDRFSGSGSGTDFTLKISRVEAEDVGVYYCGQGTQYPFTFGSGTKVEIKGQPKAAPDIQMTQSPSSLSASVGDRVTITCQASQNIYVWLNWYQQKPGKAPKLLIYKASNLHTGVPSRFSGSGSGTDFTLTISSLQPEDIATYYCQQGQTYPYTFGQGTKLEIKTKGPSRTVAAPSVFIFPPSDEQLKSGTASVVCLLNNFYPREAKVQWKVDNALQSGNSQESVTEQDSKDSTYSLSSTLTLSKADYEKHKVYACEVTHQGLSSPVTKSFNRGEC
heavy 1: QVQLVQSGAEVVKPGASVKVSCKASGYTFTSYYIHWVRQAPGQGLEWIGSIYPGNVNTNYAQKFQGRATLTVDTSISTAYMELSRLRSDDTAVYYCTRSHYGLDWNFDVWGKGTTVTVSSSQVQLVESGGGVVQPGRSLRLSCAASGFTFTKAWMHWVRQAPGKQLEWVAQIKDKSNSYATYYADSVKGRFTISRDDSKNTLYLQMNSLRAEDTAVYYCRGVYYALSPFDYWGQGTLVTVSSRTASTKGPSVFPLAPCSRSTSESTAALGCLVKDYFPEPVTVSWNSGALTSGVHTFPAVLQSSGLYSLSSVVTVPSSSLGTKTYTCNVDHKPSNTKVDKRVESKYGPPCPPCPAPEAAGGPSVFLFPPKPKDTLMISRTPEVTCVVVDVSQEDPEVQFNWYVDGVEVHNAKTKPREEQFNSTYRVVSVLTVLHQDWLNGKEYKCKVSNKGLPSSIEKTISKAKGQPREPQVCTLPPSQEEMTKNQVSLSCAVKGFYPSDIAVEWESNGQPENNYKTTPPVLDSDGSFFLVSKLTVDKSRWQEGNVFSCSVMHEALHNHYTQKSLSLSLG
heavy 2: QVQLVESGGGVVQPGRSLRLSCAASGFTFSSYGMHWVRQAPGKGLEWVAVIWYDGSNKYYADSVKGRFTISGDNSKNTLYLQMNSLRAEDTAVYYCARMFRGAFDYWGQGTLVTVSSASTKGPSVFPLAPCSRSTSESTAALGCLVKDYFPEPVTVSWNSGALTSGVHTFPAVLQSSGLYSLSSVVTVPSSSLGTKTYTCNVDHKPSNTKVDKRVESKYGPPCPPCPAPEAAGGPSVFLFPPKPKDTLMISRTPEVTCVVVDVSQEDPEVQFNWYVDGVEVHNAKTKPREEQFNSTYRVVSVLTVLHQDWLNGKEYKCKVSNKGLPSSIEKTISKAKGQPREPQVYTLPPCQEEMTKNQVSLWCLVKGFYPSDIAVEWESNGQPENNYKTTPPVLDSDGSFFLYSKLTVDKSRWQEGNVFSCSVMHEALHNHYTQKSLSLSLG
light 2: AIQMTQSPSSLSASVGDRVTITCRASQGIRNDLGWYQQKPGKAPKLLIYAASSLQSGVPSRFSGSGSGTDFTLTISGLQPEDSATYYCLQDYIYYPTFGQGTKVEIKRTVAAPSVFIFPPSDEQLKSGTASVVCLLNNFYPREAKVQWKVDNALQSGNSQESVTEQDSKDSTYSLSSTLTLSKADYEKHKVYACEVTHQGLSSPVTKSFNRGEC
With B4, the Kd in experiment [5] worked out at 48 nM; in experiment [6], 1 nM.

B5: CD38VH1xCD28supxCD3mid trispecific binding protein (other)
light 1: DIVMTQTPLSLSVTPGQPASISCKSSQSLVHNNANTYLSWYLQKPGQSPQSLIYKVSNRFSGVPDRFSGSGSGTDFTLKISRVEAEDVGVYYCGQGTQYPFTFGSGTKVEIKGQPKAAPDIQMTQSPSSLSASVGDRVTITCQASQNIYVWLNWYQQKPGKAPKLLIYKASNLHTGVPSRFSGSGSGTDFTLTISSLQPEDIATYYCQQGQTYPYTFGQGTKLEIKTKGPSRTVAAPSVFIFPPSDEQLKSGTASVVCLLNNFYPREAKVQWKVDNALQSGNSQESVTEQDSKDSTYSLSSTLTLSKADYEKHKVYACEVTHQGLSSPVTKSFNRGEC
heavy 1: QVQLVQSGAEVVKPGASVKVSCKASGYTFTSYYIHWVRQAPGQGLEWIGSIYPGNVNTNYAQKFQGRATLTVDTSISTAYMELSRLRSDDTAVYYCTRSHYGLDWNFDVWGKGTTVTVSSSQVQLVESGGGVVQPGRSLRLSCAASGFTFTKAWMHWVRQAPGKQLEWVAQIKDKSNSYATYYADSVKGRFTISRDDSKNTLYLQMNSLRAEDTAVYYCRGVYYALSPFDYWGQGTLVTVSSRTASTKGPSVFPLAPCSRSTSESTAALGCLVKDYFPEPVTVSWNSGALTSGVHTFPAVLQSSGLYSLSSVVTVPSSSLGTKTYTCNVDHKPSNTKVDKRVESKYGPPCPPCPAPEAAGGPSVFLFPPKPKDTLMISRTPEVTCVVVDVSQEDPEVQFNWYVDGVEVHNAKTKPREEQFNSTYRVVSVLTVLHQDWLNGKEYKCKVSNKGLPSSIEKTISKAKGQPREPQVCTLPPSQEEMTKNQVSLSCAVKGFYPSDIAVEWESNGQPENNYKTTPPVLDSDGSFFLVSKLTVDKSRWQEGNVFSCSVMHEALHNHYTQKSLSLSLG
heavy 2: QVQLVQSGAEVVKPGASVKVSCKASGYTFTSYAMHWVKEAPGQRLEWIGYIYPGQGGTNYNQKFQGRATLTADTSASTAYMELSSLRSEDTAVYFCARTGGLRRAYFTYWGQGTLVTVSSASTKGPSVFPLAPCSRSTSESTAALGCLVKDYFPEPVTVSWNSGALTSGVHTFPAVLQSSGLYSLSSVVTVPSSSLGTKTYTCNVDHKPSNTKVDKRVESKYGPPCPPCPAPEAAGGPSVFLFPPKPKDTLMISRTPEVTCVVVDVSQEDPEVQFNWYVDGVEVHNAKTKPREEQFNSTYRVVSVLTVLHQDWLNGKEYKCKVSNKGLPSSIEKTISKAKGQPREPQVYTLPPCQEEMTKNQVSLWCLVKGFYPSDIAVEWESNGQPENNYKTTPPVLDSDGSFFLYSKLTVDKSRWQEGNVFSCSVMHEALHNHYTQKSLSLSLG
light 2: DIVLTQSPATLSLSPGERATISCRASQSVSSYGQGFMHWYQQKPGQPPRLLIYGASSRATGIPARFSGSGSGTDFTLTISPLEPEDFAVYYCQQNKEDPWTFGGGTKLEIKRTVAAPSVFIFPPSDEQLKSGTASVVCLLNNFYPREAKVQWKVDNALQSGNSQESVTEQDSKDSTYSLSSTLTLSKADYEKHKVYACEVTHQGLSSPVTKSFNRGEC
notes: also called antiCD38_C2-CD38-1_VH1-VL1xCD28supxCD3mid
As a reminder, the EC50 is the concentration giving half of the maximal effect. As to B5, the EC50 in [7] was determined as 11 nM. Moreover, the Kd in [8] is 4 nM; in experiment [9], 21 nM; in experiment [10], 4 nM.
